Data: the supplement of paper PMC10567573

B1: BCL2L13 (parent)
chain: QSLDQEILLKVKTEIEEELKSLDK

Variants of: B1
Test: protein stability index of a GFP-peptide fusion (GPS, HEK-293T) (PSI 1-6); higher = more stable
Conditions: c terminus: a fixed tail appended
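Also: lentivirally expressed fusions sorted by FACS into six bins by GFP to DsRed ratio, PSI derived from sequencing read proportions per bin multiplied by bin number.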

Protein stability index, by site and new letter:
E6: L 3.58, H 4.15, A 3.94, D 4.83
K12: L 2.13, C 4.43, S 4.61, P 5.38, F 3.15, A 4.94, T 4.73, N 5.97, I 2.6, M 1.81, V 4.1, E 5.6, H 4.71, Y 4.27
E14: P 4.31, T 4.46, S 4.99, C 4.03, K 4.15, A 3.4, D 4.7, V 3.48, R 3.85, M 3.7, Y 3.16, F 3.06, N 4.58, W 2.47
E17: R 3.99, D 5.13, L 3.72, A 4.57, P 4.95, Q 4.56, C 3.87, G 4.93, K 4.41, H 4.51
L9: F 4.66, Y 4.45, Q 5.37, H 5.39, G 5.13, P 4.87, C 5, R 5.05, V 5.26, I 4.29
Q1: C 4.3, W 3.55, Y 3.69, V 3.97, R 4.64, K 4.38, G 4.67, T 4.6, A 5.04
K20: M 4.48, H 4.48, G 5.03, V 5.11, F 4.2
S21: L 4.46, W 3.57, R 4.42, N 5.38, T 4.59, V 4.73, G 5.35, M 4.67
E16: M 3.09, A 4.6, Q 5.04, P 4.69, K 4.76, Y 3.87, R 4.79, I 4.35
T13: C 3.28, A 3.97, M 3.65, H 4.71
L19: I 4.65, K 5.19, G 5.03, V 5.63, T 5.48, R 5.57, H 4.97, M 5.4, E 5.71, A 5.68, S 5, P 5.64, D 5.77, C 5.02
K24: E 5.74, S 4.9, R 4.53, G 5.12, W 4.94, H 4.36, I 4.58, L 4.71, C 4.53, Q 4.73
I7: M 5.3, F 4.64, N 5.33, D 5.68, W 2.94, E 5.63
E18: A 4.02, D 5.58, W 2.8, Y 2.17, R 4.16, F 3.8, P 4.32
K10: N 5.21, I 3.21, M 3.09, V 3.53, G 4.83, Y 3.85, S 5.01, A 4.98, T 4.84
I15: P 5.92, F 5.36, H 5.29, C 5.12, E 5.8, W 4.45, G 5.61, S 5.72, M 5.08, Q 5.46
V11: M 4.95, K 5.99, C 4.77, A 5.53, F 4.83, R 5.33, I 4.19
L22: F 5.37, P 5.67, W 4.34, S 5.41, Q 5.3, C 5.34, H 5.47, Y 5.02, N 5.16, E 4.58, K 5.47
D23: E 4.29, C 3.42, A 2.63, Q 4.48, G 4.41, H 3.7, L 2.2
